Patent publication US20260055193A1 (CELLDEX THERAPEUTICS, published 2026)

T1: recombinant human FcγRIIb (human, UniProt P31994 46-217, limits assumed)
T1 construct: Histidine-tagged recombinant receptor captured on anti-Penta-His biosensors; not shown: histidine tag
T1 sequence (looked up): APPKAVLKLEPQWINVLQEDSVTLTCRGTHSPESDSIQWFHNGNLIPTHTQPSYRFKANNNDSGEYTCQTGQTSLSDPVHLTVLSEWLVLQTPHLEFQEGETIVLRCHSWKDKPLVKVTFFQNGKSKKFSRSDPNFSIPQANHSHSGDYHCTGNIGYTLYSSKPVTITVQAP

B1: mAb1 (antibody, human IgG1, kappa)
heavy: QVQLVQSGAEVKKPGASVKLSCKASGYTFTDYYINWVRQAPGKGLEWIARIYPGSGNTYYNEKFKGRATLTADKSTSTAYMQLSSLRSEDTAVYFCARGVYYFDYWGQGTTVTVSSASTKGPSVFPLAPSSKSTSGGTAALGCLVKDYFPEPVTVSWNSGALTSGVHTFPAVLQSSGLYSLSSVVTVPSSSLGTQTYICNVNHKPSNTKVDKKVEPKSCDKTHTCPPCPAPEAQGGPSVFLFPPKPKDTLYITREPEVTCVVVDVSHEDPEVKFNWYVDGVEVHNAKTKPREEQYNSTYRVVSVLTVLHQDWLNGKEYKCQVSNKALPAPIEKTISKAKGQPREPQVYTLPPSRDELTKNQVSLTCLVKGFYPSDIAVEWESNGQPENNYKTTPPVLDSDGSFFLYSKLTVDKSRWQQGNVFSCSVMHEALHNHYTQKSLSLSPG
light: DIVMTQSPSSLSASVGDRVTITCKASQNVRTNVAWYQQKPGKAPKALIYSASYRYSGVPDRFTGSGSGTDFTLTISSLQPEDFADYFCQQYNSYPRTFGGGTKVEIKRTVAAPSVFIFPPSDEQLKSGTASVVCLLNNFYPREAKVQWKVDNALQSGNSQESVTEQDSKDSTYSLSSTLTLSKADYEKHKVYACEVTHQGLSSPVTKSFNRGEC
B2: mAbc (antibody)
heavy: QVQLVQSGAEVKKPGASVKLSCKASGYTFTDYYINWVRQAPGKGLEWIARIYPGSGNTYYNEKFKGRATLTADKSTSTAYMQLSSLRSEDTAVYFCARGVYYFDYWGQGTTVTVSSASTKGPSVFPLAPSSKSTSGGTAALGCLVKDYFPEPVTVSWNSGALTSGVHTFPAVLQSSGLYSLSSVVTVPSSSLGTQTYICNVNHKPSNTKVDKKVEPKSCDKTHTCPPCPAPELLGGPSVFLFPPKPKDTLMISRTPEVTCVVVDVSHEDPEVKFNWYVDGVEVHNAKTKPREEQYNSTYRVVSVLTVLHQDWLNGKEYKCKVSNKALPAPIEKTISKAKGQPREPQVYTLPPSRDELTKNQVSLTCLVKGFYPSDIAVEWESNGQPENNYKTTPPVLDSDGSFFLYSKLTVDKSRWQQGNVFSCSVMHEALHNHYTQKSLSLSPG
light: B1 light
notes: It only says that mAbc has the variable regions of mAb1 and a wild-type (unmutated) human IgG1 Fc; also called corresponding antibody with a wild-type (unmutated) IgG1 Fc domain; copies: 2 + 2

Assays:
[1] = target: human KIT (wild-type KIT) (human, UniProt P10721 26-976); assay: cell-based or functional assay
Sequence of human KIT (wild-type KIT) (P10721 other isoform, or with tags, fused parts or gaps limits assumed): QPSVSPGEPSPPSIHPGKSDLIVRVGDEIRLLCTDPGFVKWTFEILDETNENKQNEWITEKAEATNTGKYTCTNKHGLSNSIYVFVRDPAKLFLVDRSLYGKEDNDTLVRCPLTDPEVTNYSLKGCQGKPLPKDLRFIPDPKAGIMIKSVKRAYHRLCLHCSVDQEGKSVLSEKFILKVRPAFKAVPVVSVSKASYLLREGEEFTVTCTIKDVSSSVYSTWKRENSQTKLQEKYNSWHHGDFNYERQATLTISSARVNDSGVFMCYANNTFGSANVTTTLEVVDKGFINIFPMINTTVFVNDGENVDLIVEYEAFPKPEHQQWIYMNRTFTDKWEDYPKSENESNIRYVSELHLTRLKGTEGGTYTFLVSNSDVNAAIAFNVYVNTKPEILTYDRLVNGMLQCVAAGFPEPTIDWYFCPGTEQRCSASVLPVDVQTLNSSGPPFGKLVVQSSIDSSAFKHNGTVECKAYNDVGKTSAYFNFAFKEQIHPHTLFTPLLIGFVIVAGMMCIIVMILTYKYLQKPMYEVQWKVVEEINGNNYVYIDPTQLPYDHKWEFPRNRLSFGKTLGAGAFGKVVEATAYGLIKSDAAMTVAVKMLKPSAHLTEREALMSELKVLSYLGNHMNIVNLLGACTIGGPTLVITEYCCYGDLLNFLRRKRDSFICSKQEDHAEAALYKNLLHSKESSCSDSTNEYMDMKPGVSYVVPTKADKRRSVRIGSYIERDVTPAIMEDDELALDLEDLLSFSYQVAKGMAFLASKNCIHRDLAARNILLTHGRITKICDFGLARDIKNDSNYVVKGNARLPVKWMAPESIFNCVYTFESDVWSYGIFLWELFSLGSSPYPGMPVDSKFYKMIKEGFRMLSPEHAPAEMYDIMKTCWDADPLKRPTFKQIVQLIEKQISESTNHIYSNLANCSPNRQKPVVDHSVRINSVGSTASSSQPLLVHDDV

[2] = target: T1, recombinant human FcγRIIb; assay: Bio-layer interferometry (Octet QKe); His-tagged FcγRIIb on anti-Penta-His biosensors, serial dilutions of antibody
Procedure: Binding to recombinant human Fc receptors was measured by bio-layer interferometry using an Octet® QKe instrument. […] Curve fitting was performed using the instrument's analysis software. Binding to FcRn was performed with association and dissociation steps at pH 6.0 as well as pH 7.2.

Binder | IC50 of inhibition of SCF-dependent M-07e cell proliferation [1] [nM] | binding result [2]
B1 | 1.11 | –
B2 | 1.12 | no binding (tested: 500 nM)
